Results from article PMC3436766, “Distinct and Contrasting Transcription Initiation Patterns at Mycobacterium tuberculosis Promoters”.

Columns and labels:
[1] = target: T1, RNA polymerase holoenzyme with sigma A (RNAP-σA) (Mycobacterium smegmatis SM07, UniProt A0QSL8;P60281;A0QS66;A0QWT1;A0QW02 1-350;1-1169;1-1317;1-107;1-466); assay: EMSA; conditions: protein: native; chain copies: 2;1;1;1;1; label: 5'-32P on one strand; blunt
[2] = target: T1, RNA polymerase holoenzyme with sigma A …; assay: EMSA; closed complex (KB), on ice 20 min; conditions: protein: native; chain copies: 2;1;1;1;1; label: 5'-32P on one strand; blunt

B1: PgyrB1 (dsDNA)
DNA 1: GGTAAAAACGAGGCCGAGCACTCGGCCCTGGCGCCCGATCACGGTACAGTGGTGTGCGACCCCCTGCGGCGACTC
DNA 2: GAGTCGCCGCAGGGGGTCGCACACCACTGTACCGTGATCGGGCGCCAGGGCCGAGTGCTCGGCCTCGTTTTTACC
- Kd [1]: 68 ± 12.2 x 10^7 M (as printed; exponent implausible, probably nM)
- Ka [2]: 2.1 ± 0.03 10^7 M^-1
